Measured values: patent publication US20240350583A1, “COMPOSITION FOR PREVENTING OR TREATING FIBROTIC DISEASES, COMPRISING HAPLN1” (Chung Ang University Industry Academic Cooperation …, priority 2021, published 2024)
“Also recorded” adds a separate entry of the source.

Experiments:
Type in all cases: cell-based
[1] = tested on: human kidney renal tubule cell (Human Kidney 2, HK-2); experiment: Fibrosis prevention in HK-2 cells (simultaneous TGFβ1 and drug), αSMA western blot; settings: rhHAPLN1 50 ng/ml simultaneously with TGF-β (5 ng/ml), 24 hours
Protocol: (1) Human kidney renal tubule cells (HK-2) were seeded (1.0×10^5 cells/well) in a 6-well plate according to the experimental scheme of FIG. 6A and incubated in RPMI 1640 Medium (11875-093, Gibco) including 10% FBS for 24 hours in an incubator at 37° C. 5% CO2.
(2) The plates were then washed several times with PBS and each well of the plate was simultaneously treated with TGF31 (5 ng/ml) and the composition of the present disclosure (rhHAPLN1 protein content of 0, 5, 10, 20, and 50 ng/ml) and pirfenidone 0.2 mg/mL (200 μg/mL) and incubated for 24 hours.
(3) Each sample was then washed several times with ice-cold PBS, treated with radioimmunoprecipitation assay (RIPA) lysis and extraction buffer (Thermo Scientific) including protease and phosphatase inhibitors, scraped with a scraper, and transferred to an E-tube.
(4) By centrifugation (12000 rpm, 20 minutes, 4° C.), only the supernatant was obtained, and bicinchoninic acid (BCA) assay was performed to obtain quantitative protein values.
(5) After quantification using the obtained quantitative value, cooking was performed at 100° C. for 3 minutes and then stored in a −20° C. refrigerator.
(6) Using a 4% to 15% precast acrylamide PAGE gel, proteins were loaded at 10 μg per lane and run (80V-20 minutes, 120V-1 hour 30 minutes). […]
(11) After washing three times with TBST for 10 minutes each, the samples were detected by Chemidoc.

[2] = tested on: human hepatic stellate cell (HHSC); experiment: TGFβ1-induced fibrosis of human hepatic stellate cells, αSMA western blot
Protocol: (1) Human hepatic stellate cells (primary human hepatic stellate cell (HHSC; iXCells Biotechnologies, 10HU-210) were seeded (1.5×10^5 cells/well) in a 6-well plate according to the experimental scheme in FIG. 2A and incubated in stellate cell growth medium (iXCells Biotechnologies, MD-0014) in an incubator at 37° C. 5% CO2 for 24 hours.
(2) After replacing with serum-free DMEM medium, the medium was incubated for 24 hours.
(3) The plates were then treated with TGF31 (2 ng/ml) to induce fibrosis and incubated for 24 hours.
(4) Afterwards, each well of the plate was then treated with the composition of the present disclosure at rhHAPLN1 protein content of 0, 3, 10, 30, and 100 ng/ml and pirfenidone 100 μg/mL and 200 μg/mL, respectively, and incubated for 24 hours.
(5) Each sample was then treated with cell lysis buffer and harvested.
(6) Western blotting was performed on the samples. Here, anti-αSMA Ab (Abcam, ab7817), anti-GAPDH Ab (Santa Cruz, sc-32233) were used as primary antibodies and HRP-conjugated anti-mouse IgG Ab (CST, #7076) as secondary antibodies to confirm the protein expression levels of αSMA and GAPDH.

[3] = tested on: SAEMyoF system (small airway epithelial cells and adult fibroblasts); experiment: BioMAP Fibrosis panel, SAEMyoF system (pulmonary fibrosis model), ELISA
Source text: The anti-fibrotic action effect of the composition of the present disclosure on pulmonary fibrosis and kidney fibrosis was verified by examining the expression level of various fibrosis markers using the BioMAP Fibrosis Panel (provided by Eurofins discovery).
BioMAP Fibrosis panel consists of three models, SAEMyoF system (co-culturing small airway epithelial cells and adult fibroblasts), REMyOF system (co-culture of renal proximal tubule epithelial cells and adult fibroblasts), and MyOF system (differentiated lung myofibroblasts). Here, the SAEMyoF system represents interstitial lung diseases (IDL), including pulmonary fibrotic diseases such as idiopathic pulmonary fibrosis (IPF), and the REMyOF system represents kidney fibrosis disease, which is associated with end-stage renal failure. However, experiments were conducted to confirm the effect of the MyoF system only on myofibroblasts.
(1) Each primary cell was used by pooling cells from multiple donors (n=3 to 6), and cells were first cultured in 96-well plates to confluence before adding a peripheral blood mononuclear cell (PBMC).
(2) Subsequently, the cells were then each treated with the composition of the present disclosure (rhHAPLN1 protein content of 0, 3.7, 11, and 33 ng/ml) at different concentrations and cultured for 1 hour.
(3) The plates were then treated with TNF and TGFβ1 and incubated for 48 hours.
(4) Direct enzyme-linked immunosorbent assay (ELISA) was performed on the expression levels of various biomarkers.
Each quantitative value was compared as a relative fold change compared to the vehicle control. Statistical processing was performed using unpaired t-test, significant differences vs vehicle control, *p<0.05, **p<0.01, and ***p<0.001.

B1: rhHAPLN1: recombinant human HAPLN1 protein of SEQ ID NO: 1 produced in CHO-K1 cells, stabilized in acetic acid buffer, sucrose, PS80, pH 5.0 (protein, listed as Homo sapiens)
chain: MKSLLLLVLISICWADHLSDNYTLDHDRAIHIQAENGPHLLVEAEQAKVFSHRGGNVTLPCKFYRDPTAFGSGIHKIRIKWTKLTSDYLKEVDVFVSMGYHKKTYGGYQGRVFLKGGSDSDASLVITDLTLEDYGRYKCEVIEGLEDDTVVVALDLQGVVFPYFPRLGRYNLNFHEAQQACLDQDAVIASFDQLYDAWRGGLDWCNAGWLSDGSVQYPITKPREPCGGQNTVPGVRNYGFWDKDKSRYDVFCFTSNFNGRFYYLIHPTKLTYDEAVQACLNDGAQIAKVGQIFAAWKILGYDRCDAGWLADGSVRYPISRPRRRCSPTEAAVRFVGFPDKKHKLYGVYCFRAYN
fibrosis prevention (αSMA) compared to pirfenidone at 200 μg/mL (FIG. 6B, FIG. 6C) [1]: superior fibrosis prevention action compared to pirfenidone; also recorded: significantly higher
fibrosis prevention efficacy (αSMA) compared to composition that does not include rhHAPLN1 protein (FIG. 6C) [1]: superior fibrosis prevention efficacy
expression level of αSMA compared to composition that does not include rhHAPLN1 protein (FIG. 2C) ([2]; TGFβ1 (2 ng/ml) 24 h, then rhHAPLN1 3, 10, 30, 100 ng/ml 24 h): significantly lower
anti-fibrotic action from αSMA western blot band, compared to pirfenidone (FIG. 2B) ([2]; all rhHAPLN1 contents, pirfenidone 100 and 200 μg/mL): much better anti-fibrotic action compared to pirfenidone
anti-fibrotic efficacy compared to pirfenidone at 100 μg/mL and 200 μg/mL ([2]; rhHAPLN1 3 ng/ml, αSMA): much higher anti-fibrotic efficacy
rhHAPLN1 protein content showing the most excellent anti-fibrotic efficacy ([2]; αSMA): 3 ng/mL
expression level of collagen I compared to vehicle control (FIG. 11A) ([3]; regardless of rhHAPLN1 content (3.7, 11, 33 ng/ml)): consistently significantly reduced
expression level of αSMA, fold change compared to vehicle control (FIG. 11A) ([3]; regardless of rhHAPLN1 content (3.7, 11, 33 ng/ml), TNF and TGFβ1 48 hours): ≤ 0.9 fold
expression level of collagen I, fold change compared to vehicle control (FIG. 11A) ([3]; rhHAPLN1 11 ng/ml): ≤ 0.8 fold
